# Source: US20030021774
# T1: soybean Bowman-Birk Inhibitor, P01055
# T1 chain: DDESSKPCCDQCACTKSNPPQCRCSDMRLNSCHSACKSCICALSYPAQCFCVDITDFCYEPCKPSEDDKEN
# T2: Soybean Kunitz Trypsin Inhibitor, P01070
# T2 chain: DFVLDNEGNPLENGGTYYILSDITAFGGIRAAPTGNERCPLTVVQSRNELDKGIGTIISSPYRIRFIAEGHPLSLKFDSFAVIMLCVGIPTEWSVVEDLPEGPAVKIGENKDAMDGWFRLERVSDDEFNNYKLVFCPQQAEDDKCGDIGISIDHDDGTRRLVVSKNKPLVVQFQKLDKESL
# Assays:
# [1] = molecular target: soybean agglutinin (SBA), P05046
# [2] = molecular target: T1, soybean Bowman-Birk Inhibitor, P01055
# [3] = molecular target: T2, Soybean Kunitz Trypsin Inhibitor, P01070
# soybean agglutinin (SBA), P05046, sequence (P05046 33-285): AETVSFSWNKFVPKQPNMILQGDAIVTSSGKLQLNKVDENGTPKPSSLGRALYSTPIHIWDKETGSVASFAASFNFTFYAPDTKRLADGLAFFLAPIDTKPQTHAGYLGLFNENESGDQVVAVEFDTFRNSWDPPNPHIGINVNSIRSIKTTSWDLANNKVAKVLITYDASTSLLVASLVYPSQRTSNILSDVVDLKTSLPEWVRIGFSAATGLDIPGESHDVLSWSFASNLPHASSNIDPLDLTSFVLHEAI
protein,measurement,setting,value
protease derived from Bacillus sp. NCIMB 40484 (protein) MKFKKIAALSLATSLALFPAFGGSSLAKEAPKPFQPINKTLDKGAFESGEVIVKFKDGVSKKAQGSALNKAEANEQKASAKDPFQVLEVADVDQAVKALENNPNVEYAEPNYTFQATWSPNDPYYSAYQYGPQNTSTPAAWDVTRGSSTQTVAVLDSGVDYNHPDLARKVIKGYDFIDRDNNPMDLNGHGTHVAGTVAADTNNGIGVAGMAPDTKILAVRVLDANGSGSLDSIASGIRYAADQGAKVLNLSLGCECNSTTLKSAVDYAWNKGAVVVAAAGNDNVSRTFQPASYPNAIAVGAIDSNDRKASFSNYGTWVDVTAPGVNIASTVPNNGYSYMSGTSMASPHVAGLAALLASQGKNNVQIRQAIEQTADKISGTGTNFKYGKINSNKAVRY,% of anti-nutritional factor degraded (SDS-PAGE band scanning),[1],21%
same,% of anti-nutritional factor degraded (SDS-PAGE band scanning),[2],41%
same,% of anti-nutritional factor degraded (SDS-PAGE band scanning),[3],100%
